T1: human IL-23 (human, UniProt P29460 23-328; Q9NPF7 20-189)
T1 construct: Secreted from Sf9 cells for the crystal structure; One molecule is used for all three; also called Interleukin-23
T1 sequence (looked up) 1: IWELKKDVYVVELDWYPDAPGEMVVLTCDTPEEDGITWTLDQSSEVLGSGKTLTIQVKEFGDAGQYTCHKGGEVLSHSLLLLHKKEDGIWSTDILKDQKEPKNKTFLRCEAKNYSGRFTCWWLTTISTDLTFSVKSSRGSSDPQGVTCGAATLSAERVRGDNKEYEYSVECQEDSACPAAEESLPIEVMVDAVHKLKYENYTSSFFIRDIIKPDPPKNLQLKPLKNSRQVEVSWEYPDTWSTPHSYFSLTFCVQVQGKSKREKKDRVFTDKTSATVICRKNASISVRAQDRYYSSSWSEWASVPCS
T1 sequence (looked up) 2: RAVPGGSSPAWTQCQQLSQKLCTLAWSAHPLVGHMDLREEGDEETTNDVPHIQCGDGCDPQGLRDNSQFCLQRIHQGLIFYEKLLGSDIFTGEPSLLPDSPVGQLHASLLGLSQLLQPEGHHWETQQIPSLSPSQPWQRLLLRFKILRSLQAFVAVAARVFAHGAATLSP

B1: Adnectin 2 (designed binder)
chain: MGVSDVPRDLEVVAATPTSLLISWEHDYPYRRYYRITYGETGGNSPVQEFTVPKDVDTATISGLKPGVDYTITVYAVTSSYKYDMQYSPISINYRTEIDKPSQHHHHHH
notes: also called anti-IL-23 Adnectin; ATI-000929
B2: Adnectin 2 V45→N (designed binder)
chain: B1 chain with V47N
B3: Adnectin 2 Y28→A (designed binder)
chain: B1 chain with Y30A
B4: Adnectin 2 V75→K (designed binder)
chain: B1 chain with V77K
B5: Adnectin 2 Y73→A (designed binder)
chain: B1 chain with Y75A
B6: Adnectin 2 T35→N (designed binder)
chain: B1 chain with T37N
B7: Adnectin 2 T35→Q (designed binder)
chain: B1 chain with T37Q
B8: Adnectin 2 Y81→A (designed binder)
chain: B1 chain with Y83A
B9: Adnectin 2 V45→Q (designed binder)
chain: B1 chain with V47Q
B10: Adnectin 2 Y73→N (designed binder)
chain: B1 chain with Y75N
B11: Adnectin 2 T35→E (designed binder)
chain: B1 chain with T37E
B12: Adnectin 2 Y73→R (designed binder)
chain: B1 chain with Y75R
B13: Adnectin 2 V75→Y (designed binder)
chain: B1 chain with V77Y
B14: Adnectin 2 P87→A (designed binder)
chain: B1 chain with P89A
B15: Adnectin 2 T35→D (designed binder)
chain: B1 chain with T37D
B16: Adnectin 2 V45→E (designed binder)
chain: B1 chain with V47E
B17: Adnectin 2 V75→Q (designed binder)
chain: B1 chain with V77Q
B18: Adnectin 2 Y73→Q (designed binder)
chain: B1 chain with Y75Q
B19: Adnectin 2 V45→D (designed binder)
chain: B1 chain with V47D

We go through 19 molecules from US20210070840A1 (Bristol-Myers Squibb, published 2021).

In general, Kd refers to the constant that tells how readily two partners part at equilibrium. A high value points to lower affinity. As a reminder, the IC50 is the concentration at which inhibition is half-maximal.

Where a chain is given by its changes, count along the chain named.

One assay deals with T1, human IL-23. As to the kind of experiment: SPR (Biacore T100), immobilized human IL-23, single cycle kinetics. For orientation: Surface plasmon resonance follows binding to a sensor surface in real time, without labels.
The molecule B1 returned a Kd of 2 nM.

A further assay addresses T1, human IL-23. As to the kind of experiment: ratio of competition ELISA IC50, parent/mutant. A general note: In an ELISA, binding on a coated surface is turned into a signal by an enzyme label.
Turning to B1, the “Activity (parent/mutant)” value is 1 ratio.

Take B2: the “Activity (parent/mutant)” value was 1.8 ratio.

On to B3, for which the “Activity (parent/mutant)” value was determined as 0.08 ratio.

In the case of B4, the “Activity (parent/mutant)” value came out at 0.2 ratio.

With B5, the “Activity (parent/mutant)” value was 1.5 ratio.

As for B6, the “Activity (parent/mutant)” value came to 0.6 ratio.

For B7, the “Activity (parent/mutant)” value turned out to be 1 ratio.

In the case of B8, the “Activity (parent/mutant)” value amounted to 0.03 ratio.

With B9, the “Activity (parent/mutant)” value turned out to be 2.9 ratio.

Consider B10, for which the “Activity (parent/mutant)” value turned out to be 0.8 ratio.

B11: the “Activity (parent/mutant)” value stood at 1.7 ratio.

B12: the “Activity (parent/mutant)” value was found to be 0.8 ratio.

Consider B13, for which the “Activity (parent/mutant)” value amounted to 0.4 ratio.

Consider B14, for which the “Activity (parent/mutant)” value worked out at 0.1 ratio.

As for B15, the “Activity (parent/mutant)” value was found to be 0.02 ratio.

As to B16, the “Activity (parent/mutant)” value came to 1.9 ratio.

As for B17, the “Activity (parent/mutant)” value came out at 0.4 ratio.

B18: the “Activity (parent/mutant)” value was determined as 3.8 ratio.

As to B19, the “Activity (parent/mutant)” value was determined as 1.2 ratio.

The target in another assay is T1, human IL-23. As to the kind of experiment: competition ELISA: Adnectin + 1 nM IL-23 on coated IL-23R-Fc.
For the molecule B1, the IC50 was determined as 1 nM.

Turning to B2, the IC50 was determined as 0.54 nM.

Take B3: the IC50 worked out at 13 nM.

As for B4, the IC50 is 5.7 nM.

For B5, the IC50 is 0.65 nM.

For B6, the IC50 was 1.7 nM.

On to B7, for which the IC50 was found to be 1 nM.

Turning to B8, the IC50 amounted to 35 nM.

In the case of B9, the IC50 amounted to 0.34 nM.

Regarding B10, the IC50 came to 1.2 nM.

Turning to B11, the IC50 amounted to 0.6 nM.

Turning to B12, the IC50 is 1.2 nM.

In the case of B13, the IC50 stood at 2.2 nM.

On to B14, for which the IC50 was determined as 8.3 nM.

Turning to B15, the IC50 was 49 nM.

For the molecule B16, the IC50 was 0.51 nM.

In the case of B17, the IC50 is 2.3 nM.

With B18, the IC50 is 0.26 nM.

B19: the IC50 was determined as 0.83 nM.
